Experimental data reported in patent publication US20260139057A1 (University of California, published 2026).

Legend:
[1] = target: T1, recombinant human integrin αvβ8 ectodomain (human, UniProt P06756 31-992; P26012 43-681); assay: cell-based or functional assay
[2] = target: integrin αvβ6 ectodomain (immobilized) (human, UniProt P06756 31-992; P18564 22-709); assay: cell-based or functional assay
[3] = target: T2, integrin αvβ3 on HEK 293 cells stably expressing αvβ3 (Homo sapiens (Human), UniProt P06756 31-1048; P05106 27-788); assay: flow cytometry on HEK 293 cells stably expressing αvβ3
T2 construct: also called αvβ3 expressing 293 cells
T2 sequence (P06756 31-1048 limits assumed, chain 1 of 2): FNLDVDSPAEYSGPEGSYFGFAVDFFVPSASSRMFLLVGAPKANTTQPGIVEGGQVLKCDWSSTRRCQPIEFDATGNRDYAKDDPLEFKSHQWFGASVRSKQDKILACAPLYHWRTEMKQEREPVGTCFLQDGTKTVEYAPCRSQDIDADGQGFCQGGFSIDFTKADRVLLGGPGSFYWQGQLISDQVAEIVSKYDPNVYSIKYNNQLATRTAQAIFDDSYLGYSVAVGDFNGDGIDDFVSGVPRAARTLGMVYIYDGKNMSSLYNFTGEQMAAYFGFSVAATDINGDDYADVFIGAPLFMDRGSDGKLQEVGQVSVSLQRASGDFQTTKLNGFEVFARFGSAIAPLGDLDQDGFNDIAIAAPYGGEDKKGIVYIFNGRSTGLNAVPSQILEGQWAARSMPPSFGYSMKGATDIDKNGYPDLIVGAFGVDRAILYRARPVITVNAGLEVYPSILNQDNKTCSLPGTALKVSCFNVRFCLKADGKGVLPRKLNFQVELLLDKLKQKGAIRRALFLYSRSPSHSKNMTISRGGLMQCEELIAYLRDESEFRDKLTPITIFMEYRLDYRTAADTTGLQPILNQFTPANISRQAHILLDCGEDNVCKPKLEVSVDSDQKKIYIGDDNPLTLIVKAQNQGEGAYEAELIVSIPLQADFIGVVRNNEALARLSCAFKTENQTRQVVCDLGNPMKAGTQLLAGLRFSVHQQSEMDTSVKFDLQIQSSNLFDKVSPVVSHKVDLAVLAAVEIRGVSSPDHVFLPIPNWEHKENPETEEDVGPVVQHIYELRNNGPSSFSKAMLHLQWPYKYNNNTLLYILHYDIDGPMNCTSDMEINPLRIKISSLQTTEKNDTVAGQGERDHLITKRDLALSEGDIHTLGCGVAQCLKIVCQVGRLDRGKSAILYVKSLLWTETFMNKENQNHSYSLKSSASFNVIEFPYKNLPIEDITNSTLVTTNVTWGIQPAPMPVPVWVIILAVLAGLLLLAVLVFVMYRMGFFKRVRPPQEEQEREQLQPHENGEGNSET
T2 sequence (P05106 27-788 limits assumed, chain 2 of 2): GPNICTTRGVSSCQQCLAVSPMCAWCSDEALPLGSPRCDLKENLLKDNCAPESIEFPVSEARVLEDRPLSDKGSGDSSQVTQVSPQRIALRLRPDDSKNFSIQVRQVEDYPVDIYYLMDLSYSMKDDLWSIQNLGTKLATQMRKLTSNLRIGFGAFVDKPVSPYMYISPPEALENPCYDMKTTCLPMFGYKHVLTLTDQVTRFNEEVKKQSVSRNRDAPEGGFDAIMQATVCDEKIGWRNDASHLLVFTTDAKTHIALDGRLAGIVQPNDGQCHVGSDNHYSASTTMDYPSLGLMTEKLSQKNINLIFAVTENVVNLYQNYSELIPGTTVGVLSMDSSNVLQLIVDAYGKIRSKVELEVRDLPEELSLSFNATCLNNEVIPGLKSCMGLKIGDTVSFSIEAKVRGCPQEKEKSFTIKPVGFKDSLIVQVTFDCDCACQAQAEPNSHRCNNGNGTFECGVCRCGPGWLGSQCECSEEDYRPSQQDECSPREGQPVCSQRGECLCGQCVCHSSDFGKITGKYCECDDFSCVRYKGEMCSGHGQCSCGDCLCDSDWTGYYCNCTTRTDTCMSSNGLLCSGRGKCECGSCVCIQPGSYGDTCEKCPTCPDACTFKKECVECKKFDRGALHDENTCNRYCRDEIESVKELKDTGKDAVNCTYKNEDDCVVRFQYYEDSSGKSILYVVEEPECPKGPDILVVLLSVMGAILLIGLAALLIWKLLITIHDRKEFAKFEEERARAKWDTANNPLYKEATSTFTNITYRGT
Excerpt: A) Binding of anti-β3 (AP3) relative to F12 IgG4, H4C8 RGD1 IgG4,H4C8 RGD3 IgG4, H3C8 RGD3 with VL Fr4 V108/L109 (mouse) IgG4, H4C8 RGD3 IgG4, H3C8 RGD3 VL Fr4 K108/V109 (human) IgG4, H4C8 RGD1 VH Fr3 E72, H4C8 RGD3 VH Fr3 E72 IgG4. HEK 293 cells stably expressing αvβ3 were stained and the percentage of relative binding to the mean fluorescence intensity of AP3 is shown, B) Expi293 cells transiently expressing αvβ6 were stained and the percentage of relative binding to the mean fluorescence intensity of 3G9 is shown, C) HEK 293 cells stably expressing αvβ8 were stained and the percentage of relative binding to the mean fluorescence intensity of HuF12 is shown. All primary antibodies were used at 2.5 ug/ml. […] Binding or 3G9 is shown and percent binding of antibodies relative to 3G9 binding to αvβ6 is shown. Dotted line indicate binding observed with each positive control antibody,
RGD ligands bind promiscuously to a number of integrins. A highly desirable quality in RGD-mimetics is to retain specificity for some but not all integrins. One highly desirable property would be a dual inhibitor to both the αvβ8- and αvβ6-integrins, without cross-reactivity to other integrins. This property would facilitate specific targeting of integrin-mediated TGF-β activation without the liability of side-effects mediated by broadly blocking other integrins. We first measured binding to αvβ3 expressing 293 cells. Binding of anti-β3 (AP3) relative to F12 IgG4, H4C8 RGD1 IgG4,H4C8 RGD3 IgG4, H3C8 RGD3 with VL Fr4 V108/L109 (mouse) IgG4, H4C8 RGD3 IgG4, H3C8 RGD3 VI Fr4 K108/V109 (human) IgG4, H4C8 RGD1 Vh Fr3 E72, H4C8 RGD3 Vh Fr3 E72 IgG4. […] Expi293 cells transiently expressing αvβ6 were stained and the percentage of relative binding to the mean fluorescence intensity of anti-β6 (3G9) determined.

[4] = target: T3, integrin αvβ1 ectodomain (immobilized) (Homo sapiens (Human), UniProt P06756 31-992; P05556 21-728); assay: binding to immobilized integrin ectodomains blocked with BSA
T3 construct: R&D Systems; copies: 1 + 1

[5] = target: T4, integrin αvβ5 ectodomain (immobilized) (Homo sapiens (Human), UniProt P06756 31-992; P18084 24-719); assay: as above
T4 construct: R&D Systems; copies: 1 + 1
T4 sequence (P06756 31-992 limits assumed, chain 1 of 2): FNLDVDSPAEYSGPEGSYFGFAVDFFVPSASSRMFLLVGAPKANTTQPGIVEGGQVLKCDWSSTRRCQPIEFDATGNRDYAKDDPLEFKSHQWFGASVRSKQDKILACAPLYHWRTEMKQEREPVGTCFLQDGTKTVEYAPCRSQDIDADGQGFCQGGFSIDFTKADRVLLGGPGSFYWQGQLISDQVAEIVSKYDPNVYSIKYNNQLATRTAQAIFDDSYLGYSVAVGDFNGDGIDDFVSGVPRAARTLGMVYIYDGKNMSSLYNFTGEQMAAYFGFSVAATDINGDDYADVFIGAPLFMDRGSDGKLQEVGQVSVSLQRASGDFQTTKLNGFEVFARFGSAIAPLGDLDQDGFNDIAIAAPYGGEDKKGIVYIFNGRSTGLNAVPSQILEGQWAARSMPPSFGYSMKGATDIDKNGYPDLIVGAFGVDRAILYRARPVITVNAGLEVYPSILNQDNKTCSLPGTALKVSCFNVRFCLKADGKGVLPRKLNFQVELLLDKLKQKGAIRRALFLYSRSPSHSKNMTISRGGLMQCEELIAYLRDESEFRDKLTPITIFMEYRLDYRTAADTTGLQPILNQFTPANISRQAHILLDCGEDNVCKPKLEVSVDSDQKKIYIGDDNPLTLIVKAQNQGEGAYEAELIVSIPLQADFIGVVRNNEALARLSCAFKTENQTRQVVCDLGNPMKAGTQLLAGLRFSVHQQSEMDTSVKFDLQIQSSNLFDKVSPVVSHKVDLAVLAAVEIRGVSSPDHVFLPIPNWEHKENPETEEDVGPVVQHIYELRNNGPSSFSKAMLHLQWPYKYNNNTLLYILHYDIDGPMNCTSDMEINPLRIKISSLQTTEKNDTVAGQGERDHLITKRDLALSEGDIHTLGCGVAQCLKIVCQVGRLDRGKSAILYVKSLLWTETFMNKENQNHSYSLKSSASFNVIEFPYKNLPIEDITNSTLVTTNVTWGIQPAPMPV
T4 sequence (P18084 24-719 limits assumed, chain 2 of 2): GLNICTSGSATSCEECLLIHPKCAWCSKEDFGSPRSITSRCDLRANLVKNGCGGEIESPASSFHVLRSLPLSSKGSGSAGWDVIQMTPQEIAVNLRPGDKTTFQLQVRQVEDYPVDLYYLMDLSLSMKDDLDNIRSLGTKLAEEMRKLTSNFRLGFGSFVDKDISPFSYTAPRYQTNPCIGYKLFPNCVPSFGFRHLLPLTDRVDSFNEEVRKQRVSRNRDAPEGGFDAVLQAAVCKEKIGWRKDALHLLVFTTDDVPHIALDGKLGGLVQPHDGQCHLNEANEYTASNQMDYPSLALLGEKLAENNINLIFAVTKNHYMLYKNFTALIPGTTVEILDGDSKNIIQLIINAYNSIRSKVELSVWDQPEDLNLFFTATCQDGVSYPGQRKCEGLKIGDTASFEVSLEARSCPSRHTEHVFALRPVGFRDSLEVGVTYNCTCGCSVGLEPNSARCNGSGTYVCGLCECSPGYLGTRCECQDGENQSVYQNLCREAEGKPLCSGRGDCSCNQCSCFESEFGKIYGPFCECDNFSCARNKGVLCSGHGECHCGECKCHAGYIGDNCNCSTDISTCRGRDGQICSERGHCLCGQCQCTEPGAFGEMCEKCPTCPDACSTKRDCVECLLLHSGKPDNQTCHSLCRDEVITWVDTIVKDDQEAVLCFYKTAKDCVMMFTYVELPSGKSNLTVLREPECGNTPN

[6] = target: T3, integrin αvβ1 ectodomain (immobilized); assay: binding to immobilized ectodomains
[7] = target: T4, integrin αvβ5 ectodomain (immobilized); assay: binding to immobilized ectodomains
[8] = target: T1, recombinant human integrin αvβ8 …; assay: cell-based or functional assay; remark: listed apart in the source
[9] = target: T1, recombinant human integrin αvβ8 …; assay: cell-based or functional assay; remark: listed apart in the source
[10] = target: T1, recombinant human integrin αvβ8 …; assay: cell-based or functional assay; remark: listed apart in the source
[11] = target: T1, recombinant human integrin αvβ8 …; assay: KinExA; antibody format and antigen form not stated

Chain of integrin αvβ6 ectodomain (immobilized) (P06756 31-992, chain 1 of 2): as the sequence (P06756 31-992 limits assumed, chain 1 of 2) above
Chain of integrin αvβ6 ectodomain (immobilized) (P18564 22-709, chain 2 of 2): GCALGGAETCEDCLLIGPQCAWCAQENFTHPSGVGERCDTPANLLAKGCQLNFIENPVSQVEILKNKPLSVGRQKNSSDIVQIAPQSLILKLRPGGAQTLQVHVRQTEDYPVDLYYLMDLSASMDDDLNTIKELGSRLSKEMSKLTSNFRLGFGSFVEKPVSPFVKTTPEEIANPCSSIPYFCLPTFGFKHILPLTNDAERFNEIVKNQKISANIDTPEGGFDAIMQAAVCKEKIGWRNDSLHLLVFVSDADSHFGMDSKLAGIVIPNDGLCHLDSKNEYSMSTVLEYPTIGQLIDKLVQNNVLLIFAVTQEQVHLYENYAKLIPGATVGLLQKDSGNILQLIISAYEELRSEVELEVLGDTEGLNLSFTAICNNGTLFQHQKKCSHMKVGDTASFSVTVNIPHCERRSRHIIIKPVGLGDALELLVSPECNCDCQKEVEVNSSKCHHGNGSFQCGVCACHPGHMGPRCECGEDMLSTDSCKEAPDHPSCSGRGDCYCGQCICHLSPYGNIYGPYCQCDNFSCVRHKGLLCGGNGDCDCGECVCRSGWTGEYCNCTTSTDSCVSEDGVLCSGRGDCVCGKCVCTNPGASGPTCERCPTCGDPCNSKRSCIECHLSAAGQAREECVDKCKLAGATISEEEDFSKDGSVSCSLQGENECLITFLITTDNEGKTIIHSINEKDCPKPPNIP
T1 sequence (P06756 31-992 limits assumed, chain 1 of 2): as the sequence (P06756 31-992 limits assumed, chain 1 of 2) above
T1 sequence (P26012 43-681 limits assumed, chain 2 of 2): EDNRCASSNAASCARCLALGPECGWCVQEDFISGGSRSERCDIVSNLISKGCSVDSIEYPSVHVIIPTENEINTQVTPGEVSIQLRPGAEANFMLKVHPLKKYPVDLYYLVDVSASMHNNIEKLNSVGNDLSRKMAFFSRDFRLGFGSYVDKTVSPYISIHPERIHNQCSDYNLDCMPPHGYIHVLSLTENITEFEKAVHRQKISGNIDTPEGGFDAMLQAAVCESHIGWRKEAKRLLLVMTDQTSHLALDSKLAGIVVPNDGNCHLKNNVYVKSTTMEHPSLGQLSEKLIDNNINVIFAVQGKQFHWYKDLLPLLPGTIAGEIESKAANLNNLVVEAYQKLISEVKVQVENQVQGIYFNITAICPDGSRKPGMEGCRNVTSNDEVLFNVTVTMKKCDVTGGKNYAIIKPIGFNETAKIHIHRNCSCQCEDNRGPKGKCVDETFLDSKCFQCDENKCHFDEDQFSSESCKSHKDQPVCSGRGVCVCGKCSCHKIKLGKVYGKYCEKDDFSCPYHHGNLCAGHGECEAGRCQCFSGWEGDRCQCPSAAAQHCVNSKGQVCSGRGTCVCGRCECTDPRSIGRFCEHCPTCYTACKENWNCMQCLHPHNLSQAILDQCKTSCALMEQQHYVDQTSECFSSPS

B1: H4C8 RGD3, human IgG4 (antibody, V domains shown)
VH: QVQLVQSGAEVKKPGASVKVSCKVSGYTLTRQSMHWVRQAPGKGLEWMGRINTETGEPTYAQKFQGRVTMTQDTSTDTAYMELSSLRSEDTAVYFCAIFYYGRDTWGQGTTVTVSS
VL: EIVMTQSPATLSVSPGERVTLSCKSSQSLLGRGDLGRLKKNALAWYQQKPGQAPRLLIYWASTRETGVPARFSGSGSGTEFTLTISSLQSEDFAVYYCKQSYNLLSFGQGTKVEIKR
notes: also called H4C8 RGD3 IgG4
[1]
  ED50 of the inhibition of αvβ8-mediated TGF-β activation (immobilized human αvβ8, TMLC GARP/L-TGF-β reporter cells): 0.02 µg/mL
[2]
  ED50 of the inhibition of αvβ6-mediated TGF-β activation (immobilized human αvβ6, TMLC GARP/L-TGF-β reporter cells): 0.03 µg/mL
[3]
  binding result: no binding (tested: 2.5 µg/ml)
[4]
  binding result: no binding
[5]
  binding result: no binding

B2: H3C8 RGD3, human IgG4 (VL Fr4 K108/V109, human) (antibody, V domains shown)
VH: QVQLVQSGAEVKKPGASVKVSCKVSGYTLTEQSMHWVRQAPGKGLEWMGRINTETGEPTYAQKFQGRVTMTQDTSTDTAYMELSSLRSEDTAVYFCAIFYYGRDTWGQGTTVTVSS
VL: EIVMTQSPATLSVSPGERVTLSCKSSQSLLGRGDLGRLKKNALAWYQQKPGQAPRLLIYWASTRETGVPARFSGSGSGTEFTLTISSLQSEDFAVYYCKQSYNLLSFGQGTKVEIKR
notes: also called H3C8 RGD3 VL Fr4 K108/V109 (human) IgG4
[6]
  binding result: no binding
[7]
  binding result: no binding
[1]
  ED50 of the inhibition of αvβ8-mediated TGF-β activation (immobilized human αvβ8, TMLC GARP/L-TGF-β reporter cells): 0.84 µg/mL
[2]
  ED50 of the inhibition of αvβ6-mediated TGF-β activation (immobilized human αvβ6, TMLC GARP/L-TGF-β reporter cells): 0.07 µg/mL
[3]
  binding result: no binding (tested: 2.5 µg/ml)

B3: H4C8 RGD1, human IgG4 (antibody, V domains shown)
VH: QVQLVQSGAEVKKPGASVKVSCKVSGYTLTRQSMHWVRQAPGKGLEWMGRINTETGEPTYAQKFQGRVTMTQDTSTDTAYMELSSLRSEDTAVYFCAIFYYGRDTWGQGTTVTVSS
VL: EIVMTQSPATLSVSPGERVTLSCKSSQSLLRRGDLATIHGNALAWYQQKPGQAPRLLIYWASTRETGVPARFSGSGSGTEFTLTISSLQSEDFAVYYCKQSYNLLSFGQGTKVEIKR
notes: also called H4C8 RGD1 IgG4
[1]
  ED50 of the inhibition of αvβ8-mediated TGF-β activation (immobilized human αvβ8, TMLC GARP/L-TGF-β reporter cells): 0.07 µg/mL
[2]
  ED50 of the inhibition of αvβ6-mediated TGF-β activation (immobilized human αvβ6, TMLC GARP/L-TGF-β reporter cells): 0.04 µg/mL
[3]
  binding result: no binding (tested: 2.5 µg/ml)
[4]
  binding result: no binding
[5]
  binding result: no binding

B4: HuC6D4 IgG2a (antibody, V domains shown)
VH: QIQLVQSGAEVKKPGASVKISCKASGYTFTDYSMHWVRQAPGQGLEWVARINTETGEPTFADDFRGRFTVTLDTSTSTAYLEIRSLRSDDTAVYFCAIFYYGRDTWGQGTTLTVSS
VL: EIVMTQSPATLSVSPGERVTMSCKSSQSLLNSRSRKNYLAWYQQKPGQAPRLLIYWASTRESGVPARFSGSGSGTEFTLTISSVQSEDFAVYYCKQSYNLLSFGQGTVLEIKR
[8]
  EC50 of inhibition of αvβ8-mediated TGF-β activation: 0.23 µM
[9]
  IC50 of the inhibition of TGF-β activation (TMLC GARP/TGF-β1 reporter cells on αvβ8-coated wells): 3.1 µg/mL
[10]
  ED50 of the inhibition of αvβ8-mediated TGF-β activation (immobilized αvβ8, TMLC GARP/L-TGF-β reporter cells): 0.23 µg/mL

B5: H3.C12, human IgG4 (antibody, V domains shown)
VH: QVQLVQSGAEVKKPGASVKVSCKVSGYTLTEQSMHWVRQAPGKGLEWMGRINTETGEPTYAQKFQGRVTMTQDTSTDTAYMELSSLRSEDTAVYFCAIFYYGRDTWGQGTTVTVSS
VL: EIVMTQSPATLSVSPGERVTMSCRSSQSLLHSRTRKNYLAWYQQKPGQAPRLLIYWASTRETGVPARFSGSGSGTEFTLTISSLQSEDFAVYYCKQSYNLLSFGQGTVLEIKR
[8]
  EC50 of inhibition of αvβ8-mediated TGF-β activation: 0.25 µM
[10]
  ED50 of the inhibition of αvβ8-mediated TGF-β activation (immobilized αvβ8, TMLC GARP/L-TGF-β reporter cells): 0.25 µg/mL

B6: huC6D4 VH with huF12 VL, murine IgG2a (antibody, V domains shown)
VH: QIQLVQSGAEVKKPGASVKISCKASGYTFTDYSMHWVRQAPGQGLEWVARINTETGEPTFADDFRGRFTVTLDTSTSTAYLEIRSLRSDDTAVYFCAIFYYGRDTWGQGTTLTVSS
VL: EIVMTQSPATLSVSPGERVTMSCKSSQSLLHSRSRKNYLAWYQQKPGQAPRLLIYWASTRESGVPARFSGSGSGTEFTLTISSVQSEDFAVYYCKQSYNLLSFGQGTVLEIKR
[9]
  IC50 of the inhibition of TGF-β activation (TMLC GARP/TGF-β1 reporter cells on αvβ8-coated wells): 1.15 µg/mL

B7: HuC6D4 RGD3, mouse IgG2a (antibody, V domains shown)
VH: QIQLVQSGAEVKKPGASVKISCKASGYTFTDYSMHWVRQAPGQGLEWVARINTETGEPTFADDFRGRFTVTLDTSTSTAYLEIRSLRSDDTAVYFCAIFYYGRDTWGQGTTLTVSS
VL: EIVMTQSPATLSVSPGERVTMSCKSSQSLLGRGDLGRLKKNALAWYQQKPGQAPRLLIYWASTRESGVPARFSGSGSGTEFTLTISSVQSEDFAVYYCKQSYNLLSFGQGTVLEIKR
notes: Mouse IgG2a
[1]
  ED50 of the inhibition of αvβ8-mediated TGF-β activation (immobilized human αvβ8, TMLC GARP/L-TGF-β reporter cells): 3.3 µg/mL
[2]
  ED50 of the inhibition of αvβ6-mediated TGF-β activation (immobilized human αvβ6, TMLC GARP/L-TGF-β reporter cells): 1.54 µg/mL
[4]
  binding result: no binding
[5]
  binding result: no binding

B8: H4C8m (H4C8 with non-humanized, murine VL Fr4), human IgG4 (antibody, V domains shown)
VH: QVQLVQSGAEVKKPGASVKVSCKVSGYTLTRQSMHWVRQAPGKGLEWMGRINTETGEPTYAQKFQGRVTMTQDTSTDTAYMELSSLRSEDTAVYFCAIFYYGRDTWGQGTTVTVSS
VL: EIVMTQSPATLSVSPGERVTLSCRSSQSLLHSRSRKNYLAWYQQKPGQAPRLLIYWASTRETGVPARFSGSGSGTEFTLTISSLQSEDFAVYYCKQSYNLLSFGQGTVLEIKR
[8]
  EC50 of inhibition of αvβ8-mediated TGF-β activation: 0.3 µM
[10]
  ED50 of the inhibition of αvβ8-mediated TGF-β activation (immobilized αvβ8, TMLC GARP/L-TGF-β reporter cells): 0.03 µg/mL

B9: huF12 VH with huC6D4 VL, murine IgG2a (antibody, V domains shown)
VH: QIQLVQSGAEVKKPGASVKISCKASGYTFTKYSMHWVRQAPGQGLEWVARINTETGEPTFADDFRGRFTVTLDTSTSTAYLEIRSLRSDDTAVYFCAIFYYGRDTWGQGTTLTVSS
VL: EIVMTQSPATLSVSPGERVTMSCKSSQSLLNSRSRKNYLAWYQQKPGQAPRLLIYWASTRESGVPARFSGSGSGTEFTLTISSVQSEDFAVYYCKQSYNLLSFGQGTVLEIKR
[9]
  IC50 of the inhibition of TGF-β activation (TMLC GARP/TGF-β1 reporter cells on αvβ8-coated wells): 0.337 µg/mL

B10: HuC6D4 (format not stated) (antibody, V domains shown)
VH: QIQLVQSGAEVKKPGASVKISCKASGYTFTDYSMHWVRQAPGQGLEWVARINTETGEPTFADDFRGRFTVTLDTSTSTAYLEIRSLRSDDTAVYFCAIFYYGRDTWGQGTTLTVSS
VL: EIVMTQSPATLSVSPGERVTMSCKSSQSLLNSRSRKNYLAWYQQKPGQAPRLLIYWASTRESGVPARFSGSGSGTEFTLTISSVQSEDFAVYYCKQSYNLLSFGQGTVLEIKR
[11]
  Kd: 0.0821 nM
